Legend:
[1] = system: rats; test: one-trial passive avoidance procedure (associative learning), intranasal pretreatment; assay type: in vivo, Male Sprague Dawley rats
Description: Passive avoidance was performed in an apparatus (MED Associates Inc., St. Albans, Vt.) consisting of one dark chamber and one light chamber that can be divided by a guillotine door. The training procedure was executed as previously described (N. Venable et al. Psychopharmacology 100, 215 (1990)). Rats were administered a 1.0 mA shock for 3 sec, mice a 0.5 mA shock for 5 sec. Retention tests were performed either at 1, 3 or 7 days post-pairing. Maximum latency was 600 sec for rats, 300 sec for mice.
A control group received vehicle (5% cyclodextrin) alone.

[2] = system: rats; test: Morris Water Maze (spatial learning), intranasal administration; assay type: in vivo, Male Sprague Dawley rats
Description: Spatial learning was assessed using the Morris Water Maze (Morris et al. Nature, 1982, 297: 681). […] Animals were anaesthetized with isofluorane then administered peptide intra-nasally 20 min before testing. Rats were given four training trials. 48 h after training, a retention test was performed: rats were allowed to find the hidden platform for one trial. […] Latency to find the platform was considered a measure of retention of spatial learning.

[3] = blood glucose levels by glucometer after intranasal administration; details: doses 3-30 μg, twenty minutes after administration, vs vehicle
Description: Rats (N-5/group) were first anesthetized with isoflorane anesthesia and then administered vehicle (5% (2,6-DI—O-methyl)β-cyclodextrin) or insulin (3-30 μg, 28 USP units/mg) intra-nasally. Twenty minutes later, rats were sacrificed and blood glucose levels rapidly determined with a glucometer (Elite XL, Bayer).

[4] = system: rats; test: locomotor activity in open field testing chamber; details: 3-30 μg intranasal, 30 minutes in open field chamber, data not shown
Description: Following pretreatment, the rats were placed for 30 minutes in an open field testing chamber (17″×17″×12″ H) where movement was detected every 50 ms by infrared photo beam emitter and detector strips at 1″ and 10″ from the bottom of the chamber. The activity chambers were lined to a PC computer and data was compiled via Activity Monitor Software (4.0, MED Associates, St. Albans, Vt.).

[5] = system: rats; test: one-trial passive avoidance with insulin antagonist α2HSG alone or in combination; assay type: in vivo; details: for latency time in passive avoidance: compared to vehicle alone
Description: After a 20 minute pretreatment time, rats were placed in the light side of a two-chambered light/dark Plexiglas passive avoidance apparatus (MED Associates). Once the rat entered the dark chamber, a guillotine door was closed and a 1.0 mA shock (3 sec) was administered. The door was then raised and the rat was allowed to re-enter the light side. Latency (max 600 sec) to enter the dark chamber was taken as a measurement of associative learning.

| Molecule | retention of associative learning (24 hours) ([1]; FIG. 9, 24 hours) | latency to enter the dark chamber (associative learning) ([1]; intranasal 10 μg dose, pretreatment 20 min, compared to vehicle) | latency to find hidden platform, retention test ([2]; intranasal 3 μg, 48 hours following training, compared to vehicle) | latency to find submerged platform, acquisition during training ([2]; intranasal 3-30 μg, four training trials, between groups incl. vehicle) | swimming speed ([2]; intranasal, compared to vehicle) | blood glucose levels [3] | distance traveled (locomotor activity) [4] | latency time in passive avoidance ([5]; insulin 10 μg alone intranasal) | latency time in passive avoidance ([5]; α2HSG 30 μg alone) | effect on enhancement of latency times by A-chain ([5]; α2HSG 30 μg in combination with A-chain 3 μg, intranasal) | effect on enhancement of latency times by insulin ([5]; α2HSG 3-30 μg in combination with insulin 10 μg, intranasal) |
| --- | --- | --- | --- | --- | --- | --- | --- | --- | --- | --- | --- |
| insulin: insulin from bovine pancreas (C254H377N65O75S6), 28 USP units/mg, from Sigma | enhances retention of associative learning | significantly (P<0.05) enhanced latency | significantly deceased latency | No significant differences occurred in acquisition between groups during training | do not affect swimming speed compared to vehicle | no significant differences between treatment groups | did not differ between treatments | enhanced latency time |  |  |  |
| α2HSG: endogenous inhibitor of insulin receptor tyrosine kinase activity; insulin antagonist (protein, UniProt P02765 19-300; P02765 341-367, looked up) Alpha-2-HS-glycoprotein chain … 1: APHGPGLIYRQPNCDDPETEEAALVAIDYINQNLPWGYKHTLNQIDEVKVWPQQPSGELFEIEIDTLETTCHVLDPTPVARCSVRQLKEHAVEGDCDFQLLKLDGKFSVVYAKCDSSPDSAEDVRKVCQDCPLLAPLNDTRVVHAAKAALAAFNAQNNGSNFQLEEISRAQLVPLPPSTYVEFTVSGTDCVAKEATEAAKCNLLAEKQYGFCKATLSEKLGGAEVAVTCMVFQTQPVSSQPQPEGANEAVPTPVVDPDAPPSPPLGAPGLPPAGSPPDSHVL Alpha-2-HS-glycoprotein chain … 2: TVVQPSVGAAAGPVVPPCPGRIRHFKV |  |  |  |  |  |  |  |  | no difference between antagonist alone and vehicle alone | blocked enhancement of latency times by A-chain | blocked enhancement of latency times by insulin |

Reference: patent US7655619B2, “Insulin-associated peptides with effects on cerebral health” (Thomas Jefferson University, priority 2002, dated 2010)
